Literature values in US20220031810A1, “FORMULATIONS OF GLUCAGON-LIKE-PEPTIDE-2 (GLP-2) ANALOGUES” (Zealand Pharma A/S, priority 2018, published 2022).
Like-named read-outs stand apart in the source and are kept apart here.

Row | Compound | half-life (Gly substitution at position 2, compared with native GLP-2) | half-life (in humans) | half-life (in humans, listed as native GLP-2)
1 | CC[C@H](C)[C@H](NC(=O)[C@H](Cc1ccccc1)NC(=O)[C@H](CC(=O)O)NC(=O)[C@H](CCCNC(=N)N)NC(=O)[C@H](C)NC(=O)[C@H](C)NC(=O)[C@H](CC(C)C)NC(=O)[C@H](CC(N)=O)NC(=O)[C@H](CC(=O)O)NC(=O)[C@H](CC(C)C)NC(=O)[C@@H](NC(=O)[C@@H](NC(=O)[C@H](CC(N)=O)NC(=O)[C@H](CCSC)NC(=O)[C@H](CCC(=O)O)NC(=O)[C@H](CC(=O)O)NC(=O)[C@H](CO)NC(=O)[C@H](Cc1ccccc1)NC(=O)[C@H](CO)NC(=O)CNC(=O)[C@H](CC(=O)O)NC(=O)CNC(=O)[C@@H](N)Cc1c[nH]cn1)[C@@H](C)O)[C@@H](C)CC)C(=O)N[C@@H](CC(N)=O)C(=O)N[C@@H](Cc1c[nH]c2ccccc12)C(=O)N[C@@H](CC(C)C)C(=O)N[C@H](C(=O)N[C@@H](CCC(N)=O)C(=O)N[C@H](C(=O)N[C@@H](CCCCN)C(=O)N[C@H](C(=O)N[C@H](C(=O)N[C@@H](CC(=O)O)C(=O)O)[C@@H](C)O)[C@@H](C)CC)[C@@H](C)O)[C@@H](C)CC [teduglutide] | about two | – | –
2 | GLP-2 [3-33]: truncated GLP-2 [3-33] (DGSFSDEMNTILDNLAARDFINWLIQTKITD; Glucagon-like peptide 2; UniProt P01275 148-178, looked up, fragment) | – | ~27 min | –
3 | Hy-His-Ala-Asp-Gly-Ser-Phe-Ser-Asp-Glu-Met-Asn-Thr-Ile-Leu-Asp-Asn-Leu-Ala-Ala-Arg-Asp-Phe-Ile-Asn-Trp-Leu-Ile-Gln-Thr-Lys-Ile-Thr-Asp-OH [GLP-2 [1-33]] | – | around 7 minutes | seven
